Measurements: patent US20140087995A1 (published 2014)
Numbered stars: 1 amine (or outer) side, 2 acyl side, 3 side chain; on linkers, the order of the positions; unused ones are H or OH. Bridge positions count the residues as written; N and C are the ends. Side chains are listed from the residue outwards. Ends that are not written are not given here. * marks the point of attachment. C20 diacid = O=C(O)CCCCCCCCCCCCCCCCCCC(=O)*; γGlu = O=C(O)[C@H](CCC(=O)[*:2])N[*:1]

B1: N^α1-[(4S)-4-carboxy-4-(19-carboxynonadecanoylamino)butanoyl]-[Glu14,Arg17,Pro21,Pro27,Pro37]-h-amylin (peptide)
peptide: {C20 diacid-γGlu}-KCNTATCATQRLAEFLRHSSPNFGAIPSSTNVGSNTP-NH2
modifications: disulfide 2-7
SMILES: CC[C@H](C)[C@H](NC(=O)[C@H](C)NC(=O)CNC(=O)[C@H](Cc1ccccc1)NC(=O)[C@H](CC(N)=O)NC(=O)[C@@H]1CCCN1C(=O)[C@H](CO)NC(=O)[C@H](CO)NC(=O)[C@H](Cc1c[nH]cn1)NC(=O)[C@H](CCCNC(=N)N)NC(=O)[C@H](CC(C)C)NC(=O)[C@H](Cc1ccccc1)NC(=O)[C@H](CCC(=O)O)NC(=O)[C@H](C)NC(=O)[C@H](CC(C)C)NC(=O)[C@H](CCCNC(=N)N)NC(=O)[C@H](CCC(N)=O)NC(=O)[C@@H](NC(=O)[C@H](C)NC(=O)[C@@H]1CSSC[C@H](NC(=O)[C@H](CCCCN)NC(=O)CC[C@H](NC(=O)CCCCCCCCCCCCCCCCCCC(=O)O)C(=O)O)C(=O)N[C@@H](CC(N)=O)C(=O)N[C@@H]([C@@H](C)O)C(=O)N[C@@H](C)C(=O)N[C@@H]([C@@H](C)O)C(=O)N1)[C@@H](C)O)C(=O)N1CCC[C@H]1C(=O)N[C@@H](CO)C(=O)N[C@@H](CO)C(=O)N[C@H](C(=O)N[C@@H](CC(N)=O)C(=O)N[C@H](C(=O)NCC(=O)N[C@@H](CO)C(=O)N[C@@H](CC(N)=O)C(=O)N[C@H](C(=O)N1CCC[C@H]1C(N)=O)[C@@H](C)O)C(C)C)[C@@H](C)O
notes: also called compound 8
B2: N^α1-[(4S)-4-carboxy-4-(19-carboxynonadecanoylamino)butanoyl]-[Glu14,Arg17,Pro21,Pro28,Glu35]-h-amylin (peptide)
peptide: {C20 diacid-γGlu}-KCNTATCATQRLAEFLRHSSPNFGAILPSTNVGSETY-NH2
modifications: disulfide 2-7
notes: also called compound 33
B3: N^α1-[(4S)-4-carboxy-4-[[(4S)-4-carboxy-4-(19-carboxynonadecanoylamino)butanoyl]amino]butanoyl]-[Glu14,Arg17,Pro21,Pro27,Pro37]-h-amylin (peptide)
peptide: {C20 diacid-γGlu-γGlu}-KCNTATCATQRLAEFLRHSSPNFGAIPSSTNVGSNTP-NH2
modifications: disulfide 2-7
SMILES: CC[C@H](C)[C@H](NC(=O)[C@H](C)NC(=O)CNC(=O)[C@H](Cc1ccccc1)NC(=O)[C@H](CC(N)=O)NC(=O)[C@@H]1CCCN1C(=O)[C@H](CO)NC(=O)[C@H](CO)NC(=O)[C@H](Cc1c[nH]cn1)NC(=O)[C@H](CCCNC(=N)N)NC(=O)[C@H](CC(C)C)NC(=O)[C@H](Cc1ccccc1)NC(=O)[C@H](CCC(=O)O)NC(=O)[C@H](C)NC(=O)[C@H](CC(C)C)NC(=O)[C@H](CCCNC(=N)N)NC(=O)[C@H](CCC(N)=O)NC(=O)[C@@H](NC(=O)[C@H](C)NC(=O)[C@@H]1CSSC[C@H](NC(=O)[C@H](CCCCN)NC(=O)CC[C@H](NC(=O)CC[C@H](NC(=O)CCCCCCCCCCCCCCCCCCC(=O)O)C(=O)O)C(=O)O)C(=O)N[C@@H](CC(N)=O)C(=O)N[C@@H]([C@@H](C)O)C(=O)N[C@@H](C)C(=O)N[C@@H]([C@@H](C)O)C(=O)N1)[C@@H](C)O)C(=O)N1CCC[C@H]1C(=O)N[C@@H](CO)C(=O)N[C@@H](CO)C(=O)N[C@H](C(=O)N[C@@H](CC(N)=O)C(=O)N[C@H](C(=O)NCC(=O)N[C@@H](CO)C(=O)N[C@@H](CC(N)=O)C(=O)N[C@H](C(=O)N1CCC[C@H]1C(N)=O)[C@@H](C)O)C(C)C)[C@@H](C)O
notes: also called compound 14
B4: N^α1N^α1-[(4S)-4-carboxy-4-(19-carboxynonadecanoylamino)butanoyl]-[Glu14,Arg17,Pro21,Pro27,Glu35]-h-amylin (peptide)
peptide: {C20 diacid-γGlu}-KCNTATCATQRLAEFLRHSSPNFGAIPSSTNVGSETY-NH2
modifications: disulfide 2-7
SMILES: CC[C@H](C)[C@H](NC(=O)[C@H](C)NC(=O)CNC(=O)[C@H](Cc1ccccc1)NC(=O)[C@H](CC(N)=O)NC(=O)[C@@H]1CCCN1C(=O)[C@H](CO)NC(=O)[C@H](CO)NC(=O)[C@H](Cc1c[nH]cn1)NC(=O)[C@H](CCCNC(=N)N)NC(=O)[C@H](CC(C)C)NC(=O)[C@H](Cc1ccccc1)NC(=O)[C@H](CCC(=O)O)NC(=O)[C@H](C)NC(=O)[C@H](CC(C)C)NC(=O)[C@H](CCCNC(=N)N)NC(=O)[C@H](CCC(N)=O)NC(=O)[C@@H](NC(=O)[C@H](C)NC(=O)[C@@H]1CSSC[C@H](NC(=O)[C@H](CCCCN)NC(=O)CC[C@H](NC(=O)CCCCCCCCCCCCCCCCCCC(=O)O)C(=O)O)C(=O)N[C@@H](CC(N)=O)C(=O)N[C@@H]([C@@H](C)O)C(=O)N[C@@H](C)C(=O)N[C@@H]([C@@H](C)O)C(=O)N1)[C@@H](C)O)C(=O)N1CCC[C@H]1C(=O)N[C@@H](CO)C(=O)N[C@@H](CO)C(=O)N[C@H](C(=O)N[C@@H](CC(N)=O)C(=O)N[C@H](C(=O)NCC(=O)N[C@@H](CO)C(=O)N[C@@H](CCC(=O)O)C(=O)N[C@H](C(=O)N[C@@H](Cc1ccc(O)cc1)C(N)=O)[C@@H](C)O)C(C)C)[C@@H](C)O
notes: also called compound 22
B5: N^ε1-[(4S)-4-carboxy-4-(19-carboxynonadecanoylamino)butanoyl]-[Glu14,Arg17,Pro21,Pro27,Arg34,Glu35]-h-amylin (peptide)
peptide: K([γGlu-C20 diacid])CNTATCATQRLAEFLRHSSPNFGAIPSSTNVGRETY-NH2
modifications: disulfide 2-7; N-terminus assumed
SMILES: CC[C@H](C)[C@H](NC(=O)[C@H](C)NC(=O)CNC(=O)[C@H](Cc1ccccc1)NC(=O)[C@H](CC(N)=O)NC(=O)[C@@H]1CCCN1C(=O)[C@H](CO)NC(=O)[C@H](CO)NC(=O)[C@H](Cc1c[nH]cn1)NC(=O)[C@H](CCCNC(=N)N)NC(=O)[C@H](CC(C)C)NC(=O)[C@H](Cc1ccccc1)NC(=O)[C@H](CCC(=O)O)NC(=O)[C@H](C)NC(=O)[C@H](CC(C)C)NC(=O)[C@H](CCCNC(=N)N)NC(=O)[C@H](CCC(N)=O)NC(=O)[C@@H](NC(=O)[C@H](C)NC(=O)[C@@H]1CSSC[C@H](NC(=O)[C@@H](N)CCCCNC(=O)CC[C@H](NC(=O)CCCCCCCCCCCCCCCCCCC(=O)O)C(=O)O)C(=O)N[C@@H](CC(N)=O)C(=O)N[C@@H]([C@@H](C)O)C(=O)N[C@@H](C)C(=O)N[C@@H]([C@@H](C)O)C(=O)N1)[C@@H](C)O)C(=O)N1CCC[C@H]1C(=O)N[C@@H](CO)C(=O)N[C@@H](CO)C(=O)N[C@H](C(=O)N[C@@H](CC(N)=O)C(=O)N[C@H](C(=O)NCC(=O)N[C@@H](CCCNC(=N)N)C(=O)N[C@@H](CCC(=O)O)C(=O)N[C@H](C(=O)N[C@@H](Cc1ccc(O)cc1)C(N)=O)[C@@H](C)O)C(C)C)[C@@H](C)O
B6: N^ε1-[(4S)-4-carboxy-4-(19-carboxynonadecanoylamino)butanoyl]-[Glu14,Arg17,Pro21,Pro27,Arg35]-h-amylin (peptide)
peptide: K([γGlu-C20 diacid])CNTATCATQRLAEFLRHSSPNFGAIPSSTNVGSRTY-NH2
modifications: disulfide 2-7; N-terminus assumed
SMILES: CC[C@H](C)[C@H](NC(=O)[C@H](C)NC(=O)CNC(=O)[C@H](Cc1ccccc1)NC(=O)[C@H](CC(N)=O)NC(=O)[C@@H]1CCCN1C(=O)[C@H](CO)NC(=O)[C@H](CO)NC(=O)[C@H](Cc1c[nH]cn1)NC(=O)[C@H](CCCNC(=N)N)NC(=O)[C@H](CC(C)C)NC(=O)[C@H](Cc1ccccc1)NC(=O)[C@H](CCC(=O)O)NC(=O)[C@H](C)NC(=O)[C@H](CC(C)C)NC(=O)[C@H](CCCNC(=N)N)NC(=O)[C@H](CCC(N)=O)NC(=O)[C@@H](NC(=O)[C@H](C)NC(=O)[C@@H]1CSSC[C@H](NC(=O)[C@@H](N)CCCCNC(=O)CC[C@H](NC(=O)CCCCCCCCCCCCCCCCCCC(=O)O)C(=O)O)C(=O)N[C@@H](CC(N)=O)C(=O)N[C@@H]([C@@H](C)O)C(=O)N[C@@H](C)C(=O)N[C@@H]([C@@H](C)O)C(=O)N1)[C@@H](C)O)C(=O)N1CCC[C@H]1C(=O)N[C@@H](CO)C(=O)N[C@@H](CO)C(=O)N[C@H](C(=O)N[C@@H](CC(N)=O)C(=O)N[C@H](C(=O)NCC(=O)N[C@@H](CO)C(=O)N[C@@H](CCCNC(=N)N)C(=O)N[C@H](C(=O)N[C@@H](Cc1ccc(O)cc1)C(N)=O)[C@@H](C)O)C(C)C)[C@@H](C)O
notes: also called compound 51

target: T1, human amylin 3(a) receptor (human calcitonin receptor plus RAMP-3) (human, UniProt P30988 25-474; O60896 24-148, limits assumed); assay: cell-based or functional assay
T1 sequence (looked up) 1: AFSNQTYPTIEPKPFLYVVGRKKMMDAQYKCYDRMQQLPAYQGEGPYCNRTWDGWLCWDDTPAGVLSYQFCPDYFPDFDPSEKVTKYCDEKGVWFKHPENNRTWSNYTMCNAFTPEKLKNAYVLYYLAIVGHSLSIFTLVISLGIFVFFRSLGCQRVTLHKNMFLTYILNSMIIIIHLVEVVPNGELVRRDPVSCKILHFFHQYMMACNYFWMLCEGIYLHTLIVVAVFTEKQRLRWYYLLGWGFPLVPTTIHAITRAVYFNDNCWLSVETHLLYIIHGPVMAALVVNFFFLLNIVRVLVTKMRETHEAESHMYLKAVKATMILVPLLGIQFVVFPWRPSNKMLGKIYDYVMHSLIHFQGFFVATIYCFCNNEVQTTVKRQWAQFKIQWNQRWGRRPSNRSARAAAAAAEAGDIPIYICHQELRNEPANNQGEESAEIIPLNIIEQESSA
T1 sequence (looked up) 2: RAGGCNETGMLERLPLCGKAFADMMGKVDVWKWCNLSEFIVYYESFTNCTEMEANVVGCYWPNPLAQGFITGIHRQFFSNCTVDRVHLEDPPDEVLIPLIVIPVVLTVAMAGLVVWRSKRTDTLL

| Binder | Ratio hCT/hAmylin funct. | hAmylin-R funct. EC50 |
| --- | --- | --- |
| B1 | 1.1 | 0.082 nM |
| B2 | 2.2 | 0.243 nM |
| B3 | 1.6 | 0.146 nM |
| B4 | 3.8 | 0.27 nM |
| B5 | 6.5 | 0.421 nM |
| B6 | 14 | 0.372 nM |

target: T2, human calcitonin receptor (human, UniProt P30988 25-474); assay: cell-based or functional assay
T2 sequence (looked up): T1 sequence (looked up) 1

| Binder | hCTR funct. EC50 |
| --- | --- |
| B1 | 0.087 nM |
| B2 | 0.528 nM |
| B3 | 0.238 nM |
| B4 | 1.03 nM |
| B5 | 2.75 nM |
| B6 | 5.22 nM |

target: T1, human amylin 3(a) receptor (human …); assay: SPA competition binding, displacement of 125I-rat amylin from membranes of Amylin 3(a)/CRE-luc BHK cells (Assay V)
Procedure, shortened: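 One-site competition analysis of SPA counts yielded IC₅₀ as a measure of affinity. Membranes were at 35 ng/μL final; incubation was 120 min at 25° C, pH 7.4.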

| Binder | IC50 |
| --- | --- |
| B1 | 0.072 nM |
| B2 | 0.915 nM |
| B3 | 0.196 nM |
| B4 | 0.794 nM |
| B5 | 0.232 nM |
| B6 | 0.828 nM |
